Measured values reported in PMC4702109, “Osmotic stress induces the phosphorylation of WNK4 Ser575 via the p38MAPK-MK pathway” (Scientific Reports, 2016).
Where no end group is shown, it is not given here. [ ]: non-standard residue; d: D form. pS = N[C@@H](COP(=O)(O)O)C(=O)O

B1: WNK4 (557–580)-pS575 peptide (peptide, UniProt Q96J92 557-580, looked up)
peptide: EPEEPEADQHQPFLFRHA[pS]YSSTT
modifications: also: FLAG tag, position not given here
notes: Held on anti-FLAG antibody beads; also called peptide phosphorylated at Ser575; source: synthetic peptide (bought: Eurofins Genomics)
B2: WNK4 (557–580)-WT peptide (peptide, UniProt Q96J92 557-580, looked up)
peptide: EPEEPEADQHQPFLFRHASYSSTT
notes: Held on anti-FLAG antibody beads; also called unphosphorylated peptide; source: synthetic peptide (bought: Eurofins Genomics)

Target: T1, GST-hKLHL3 (290–587) (human, UniProt Q9UH77 290-587)
T1 construct: Kelch-like protein 3 (KLHL3), human, residues 290-587; End of the tag read from the construct's name; also called GST-KLHL3 (290–587); GST-KLHL3; source: E. coli BL21, purified (glutathione-Sepharose column, eluted with glutathione); not shown: GST, N-terminal, kept
T1 sequence (looked up): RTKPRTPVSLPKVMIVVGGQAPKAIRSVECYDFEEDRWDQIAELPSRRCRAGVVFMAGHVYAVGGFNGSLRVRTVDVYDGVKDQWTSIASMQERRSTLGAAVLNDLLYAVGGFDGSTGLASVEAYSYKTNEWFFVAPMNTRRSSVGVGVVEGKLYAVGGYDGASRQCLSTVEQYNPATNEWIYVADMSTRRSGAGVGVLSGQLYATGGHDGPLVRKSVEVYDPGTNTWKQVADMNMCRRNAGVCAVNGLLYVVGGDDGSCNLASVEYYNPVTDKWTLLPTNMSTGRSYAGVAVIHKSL
Test: pull-down; FLAG-tagged synthetic WNK4 (557–580) peptides (1 μg) held on anti-FLAG antibody beads; GST-hKLHL3 (290–587) incubated 6 hours, washed with IP lysis buffer; immunoblot; two amounts of GST-KLHL3 (3-fold apart)
Conditions: both partners purified

Binder | binding result
B1 | binds
B2 | binds
